The results in this text go back to paper PMC10113271, “Rational peptide design for inhibition of the KIX–MLL interaction” (Scientific Reports, 2023).

Where no end group is shown, it is not given here. The star is where a group is joined. FITC = O=C1OC2(c3ccc(O)cc3Oc3cc(O)ccc32)c2ccc(NC(=S)*)cc21; βAla = NCCC(=O)O

Conditions in all cases: both partners purified
Experiment [1] concerns the target T1, KIX domain of CREB-binding protein (residues 586–672 of mouse CBP) (mouse, UniProt P45481 586-672).
T1 construct: KIX domain, residues 586-672 of mouse CBP; 6xHis-tag and thrombin cleavage site at the N-terminus; source: E. coli BL21(DE3)pLysS, purified (Ni-NTA, gel filtration on Superdex 200 pg)
The experiment is described as follows: ITC; 600 μM MLL solution titrated into the cell containing 45 µM KIX; 30 °C; 20 mM Tris–acetate pH 7.0, 50 mM NaCl; one-site binding model. (In ITC the heat of successive injections is recorded.)

Experiment [2] has as its target T1, KIX domain of CREB-binding protein …. The experiment is described as follows: SPR; His-tag–GB1–MLL TAD immobilised on CM5 by amine coupling (77.9 RU); KIX 0.04–30 μM injected; 30 °C; 20 mM sodium phosphate pH 7.0, 100 mM NaCl, 0.05% Tween 20; equilibrium analysis. On the technique in general: SPR reads the build-up and loss of mass on a sensor chip optically.
For experiment [3] the target is unchanged. The experiment in a line: SPR; competition: mixture of KIX (5 μM) and inhibitor (0.27–200 μM) injected over immobilised His-tag–GB1–MLL TAD; 30 °C; 20 mM sodium phosphate pH 7.0, 100 mM NaCl, 0.05% Tween 20.
For experiment [4] the target is unchanged. The experiment is described as follows: fluorescence polarisation; competition: inhibitor (0–200 μM) titrated into a mixture of KIX (2 μM) and FITC-Myb (25 nM); 30 °C; 20 mM sodium phosphate pH 7.0, 100 mM NaCl, 0.005% Tween 20. (Polarisation of emitted light reports the rotation of a fluorescent probe.)
For experiment [5] the target is unchanged. The experiment is described as follows: fluorescence polarisation; competition: inhibitor (0–200 μM) titrated into a mixture of KIX (2 μM) and FITC-MLL (25 nM); 30 °C; 20 mM sodium phosphate pH 7.0, 100 mM NaCl, 0.005% Tween 20.
Experiment [6] shares this target. The experiment is described as follows: fluorescence polarisation; 0–100 μM KIX titrated into 25 nM FITC-labeled peptide; 30 °C; 20 mM sodium phosphate pH 7.0, 100 mM NaCl, 0.005% Tween 20.

T1 sequence (P45481 586-672): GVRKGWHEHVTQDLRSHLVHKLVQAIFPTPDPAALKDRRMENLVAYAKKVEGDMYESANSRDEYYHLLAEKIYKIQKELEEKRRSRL

B1: His-tag–GB1–MLL TAD (wild type) (peptide)
chain: GNILPSDIMDFVLKNTPSMQALGESPESY
notes: MLL TAD, residues 2842-2869 of human MLL; Tyr residue attached at the C-terminus for concentration determination by UV absorption; Used in ITC and immobilised in SPR; also called wild-type MLL TAD; WT; source: E. coli BL21(DE3), purified (Ni-NTA); not shown: His6, N-terminal, kept
The Kd is a measure of binding affinity in units of concentration. Lower therefore signals higher affinity. As usually defined, the stoichiometry N is a count of units in the complex or per binding partner. Broadly, the IC50 is the concentration at which inhibition is half-maximal. As for B1, in experiment [1], the dissociation constant Kd worked out at 2020 nM, the dH was -13.1 kcal/mol and the “stoichiometry N” value was 1.02. Binding in experiment [2] was characterised by a dissociation constant (Kd) of 4940 nM. The half-inhibitory concentration (IC50) in experiment [3] is 10400 nM.

B2: designed T2857W peptide used as inhibitor in fluorescence polarization (peptide)
chain: GNILPSDIMDFVLKNWPSMQALGESPESY
notes: MLL TAD, residues 2842-2869 of human MLL, with the substitution; Tyr residue attached at the C-terminus for concentration determination by UV absorption; also called designed peptide; source: E. coli BL21(DE3), purified (Ni-NTA)
Regarding B2, the half-inhibitory concentration (IC50) in experiment [4] was 16000 nM; in experiment [5], 3480 nM.

B3: His-tag–GB1–MLL TAD T2857W (peptide)
chain: GNILPSDIMDFVLKNWPSMQALGESPESY
notes: MLL TAD, residues 2842-2869 of human MLL, with the substitution; Tyr residue attached at the C-terminus for concentration determination by UV absorption; Used in ITC; also called designed T2857W peptide; T2857W mutant of the MLL TAD peptide; source: E. coli BL21(DE3), purified (Ni-NTA); not shown: His6, N-terminal, kept
On to B3, for which, in experiment [1], the Kd came to 950 nM, the dH was -12.8 kcal/mol and the “stoichiometry N” value was 1.02. For the same molecule, the concentration for half-maximal inhibition (IC50) in experiment [3] came to 5670 nM.

B4: MLL TAD peptide T2857I without His-tag–GB1 (peptide)
chain: GNILPSDIMDFVLKNIPSMQALGESPESY
notes: MLL TAD, residues 2842-2869 of human MLL, with the substitution; Tyr residue attached at the C-terminus for concentration determination by UV absorption; One of the four mutants used without His-tag–GB1 in ITC as well as in CD; source: E. coli BL21(DE3), purified (Ni-NTA, thrombin digestion on the column, anion exchange); not shown: His6, N-terminal, cleaved
In the case of B4, in experiment [1], binding was put at a Kd of 2400 nM, the dH was -10 kcal/mol and the “stoichiometry N” value was determined as 1.04.

B5: MLL TAD peptide K2855R without His-tag–GB1 (peptide)
chain: GNILPSDIMDFVLRNTPSMQALGESPESY
notes: as for B4
For B5, in experiment [1], the Kd came to 1500 nM, the dH was -13.8 kcal/mol and the “stoichiometry N” value came to 0.94.

B6: His-tag–GB1–MLL TAD T2857F (peptide)
chain: GNILPSDIMDFVLKNFPSMQALGESPESY
notes: MLL TAD, residues 2842-2869 of human MLL, with the substitution; Tyr residue attached at the C-terminus for concentration determination by UV absorption; source: E. coli BL21(DE3), purified (Ni-NTA); not shown: His6, N-terminal, kept
Regarding B6, in experiment [1], the dissociation constant (Kd) is 2100 nM, the dH was -11.1 kcal/mol and the “stoichiometry N” value was 1.07.

B7: His-tag–GB1–MLL TAD T2857K (peptide)
chain: GNILPSDIMDFVLKNKPSMQALGESPESY
notes: as for B6
On to B7, for which, in experiment [1], the Kd is 4900 nM, the dH was -11.7 kcal/mol and the “stoichiometry N” value was determined as 1.02.

B8: MLL TAD peptide D2851L without His-tag–GB1 (peptide)
chain: GNILPSDIMLFVLKNTPSMQALGESPESY
notes: as for B4
For the molecule B8, in experiment [1], the Kd came out at 4800 nM, the dH was -8.8 kcal/mol and the “stoichiometry N” value was 1.02.

B9: His-tag–GB1–MLL TAD T2857L (peptide)
chain: GNILPSDIMDFVLKNLPSMQALGESPESY
notes: as for B6
As to B9, in experiment [1], the Kd worked out at 1900 nM, the dH was -10.5 kcal/mol and the “stoichiometry N” value amounted to 1.05.

B10: His-tag–GB1–MLL TAD T2857A (peptide)
chain: GNILPSDIMDFVLKNAPSMQALGESPESY
notes: as for B6
As for B10, in experiment [1], the dissociation constant Kd came to 2620 nM, the dH is -11.8 kcal/mol and the “stoichiometry N” value was 1.03.

B11: His-tag–GB1–MLL TAD K2855R/T2857W (peptide)
chain: GNILPSDIMDFVLRNWPSMQALGESPESY
notes: MLL TAD, residues 2842-2869 of human MLL, with the substitutions; Tyr residue attached at the C-terminus for concentration determination by UV absorption; also called K2855R/T2857W double mutant; source: E. coli BL21(DE3), purified (Ni-NTA); not shown: His6, N-terminal, kept
As for B11, in experiment [1], the Kd stood at 1040 nM, the dH is -12.2 kcal/mol and the “stoichiometry N” value is 1.04.

B12: His-tag–GB1–MLL TAD T2857R (peptide)
chain: GNILPSDIMDFVLKNRPSMQALGESPESY
notes: as for B6
On to B12, for which, in experiment [1], the Kd is 3000 nM, the dH is -12.6 kcal/mol and the “stoichiometry N” value amounted to 1.03.

B13: His-tag–GB1–MLL TAD K2855R/T2857L (peptide)
chain: GNILPSDIMDFVLRNLPSMQALGESPESY
notes: MLL TAD, residues 2842-2869 of human MLL, with the substitutions; Tyr residue attached at the C-terminus for concentration determination by UV absorption; also called K2855R/T2857L double mutant; source: E. coli BL21(DE3), purified (Ni-NTA); not shown: His6, N-terminal, kept
B13: in experiment [1], the equilibrium dissociation constant (Kd) is 1720 nM, the dH is -9.5 kcal/mol and the “stoichiometry N” value was 1.09.

B14: MLL TAD peptide I2849L without His-tag–GB1 (peptide)
chain: GNILPSDLMDFVLKNTPSMQALGESPESY
notes: as for B4
As to B14, in experiment [1], the equilibrium dissociation constant (Kd) stood at 2800 nM, the dH is -12.3 kcal/mol and the “stoichiometry N” value turned out to be 0.947.

B15: His-tag–GB1–MLL TAD T2857Y (peptide)
chain: GNILPSDIMDFVLKNYPSMQALGESPESY
notes: as for B6
Turning to B15, in experiment [1], the Kd stood at 2280 nM, the dH is -12.3 kcal/mol and the “stoichiometry N” value amounted to 1.02.

B16: FITC-labeled c-Myb TAD peptide (peptide)
peptide: {FITC-βAla}-GYNDEDPEKEKRIKELELLLMSTENELKGQQAL
notes: first residue of the printed peptide; as far as I recall not a residue of c-Myb at this position; c-Myb TAD; 33 residues as printed; also called FITC-Myb; source: synthetic peptide, bought: Biologica Co
In the case of B16, in experiment [6], the binding result is reported as “binds”.

B17: wild-type MLL TAD peptide used as inhibitor in fluorescence polarization (peptide)
chain: GNILPSDIMDFVLKNTPSMQALGESPESY
notes: MLL TAD, residues 2842-2869 of human MLL; Tyr residue attached at the C-terminus for concentration determination by UV absorption; also called wild-type peptide; WT; source: E. coli BL21(DE3), purified (Ni-NTA)
For the molecule B17, the IC50 in experiment [4] worked out at 36000 nM; in experiment [5], 7100 nM.
